The record followed here is publication PMC12678531, “Cytosolic TOP3α facilitates mitochondrial DNA sensing by cGAS”.

This series has as its target cGAS (Homo sapiens, UniProt Q8N884 1-522). Description: EMSA; 300 pmol protein, 50 pmol DNA in 10 uL; EMSA: Beyotime GS005 binding buffer, 37 C, 15 min, 10 uL, 6% PAGE in TBE at 4 C; extract pull-down: 50 mM Tris-HCl pH 7.5, 150 mM NaCl, 0.025% digitonin. The conditions noted are these: protein: recombinant; tags: C-terminal LE-6xHis; chain copies: 2; label: none for EMSA (GelRed stain); blunt. (Mobility shift assays separate free from complexed probe on a gel.)

cGAS, sequence (Q8N884 whole entry): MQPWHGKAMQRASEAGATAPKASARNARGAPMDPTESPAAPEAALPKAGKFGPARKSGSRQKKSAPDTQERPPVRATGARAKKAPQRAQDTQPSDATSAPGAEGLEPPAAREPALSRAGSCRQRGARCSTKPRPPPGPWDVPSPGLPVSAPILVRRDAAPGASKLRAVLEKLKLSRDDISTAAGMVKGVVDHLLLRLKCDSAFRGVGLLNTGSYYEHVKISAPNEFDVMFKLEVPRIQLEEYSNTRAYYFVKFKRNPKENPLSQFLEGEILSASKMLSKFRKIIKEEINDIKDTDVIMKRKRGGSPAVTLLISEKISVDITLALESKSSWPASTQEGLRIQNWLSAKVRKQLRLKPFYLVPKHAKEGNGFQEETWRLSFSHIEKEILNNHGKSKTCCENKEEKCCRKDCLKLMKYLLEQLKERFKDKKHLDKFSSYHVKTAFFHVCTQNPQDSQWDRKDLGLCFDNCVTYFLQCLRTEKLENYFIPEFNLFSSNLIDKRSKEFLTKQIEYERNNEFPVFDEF

B1: DNA2 (30 bp) (dsDNA)
DNA 1: CCGAAACCAGACGAGCTACCTAAGAACAGC
DNA 2: GCTGTTCTTAGGTAGCTCGTCTGGTTTCGG
As for B1, the binding result is reported as “binds”.
